The record followed here is paper PMC2839085.

For this test, the target named is TmMre11 (TM1635) truncated construct, residues 1-324 (Thermotoga maritima) (UniProt Q9X1X0). Put plainly: crystal structure.

Broadly, the stoichiometry N is a count of units in the complex or per binding partner.

In turn, “TmMre11 (TM1635) truncated construct, residues 1-324 (from UniProt Q9X1X0 1-324) (domain or fragment)” came in with a stoichiometry N of 2.
